{
  "source": "paper PMC7472727",
  "about": "“Novel Escherichia coli RNA Polymerase Binding Protein Encoded by Bacteriophage T5”",
  "target": "RNAP holoenzyme with [211Cys-TMR] sigma70 (RNAP beacon);gpT5.026 (Escherichia coli;Escherichia phage T5, UniProt P0A7Z4;P0A8V2;P0A8T7;P0A800;P00579;Q6QGR1 1-329;1-1342;1-1407;2-91;1-613;1-153, S211C|)",
  "experiment": "fluorescence RNAP beacon titration; 100 nM gpT5.026 preincubated 15 min; 40 mM Tris-HCl pH 8.0, 100 mM NaCl, 5% glycerol, 1 mM DTT, 10 mM MgCl2, 0.02% Tween 20, 25 C; 1 nM labeled RNAP holoenzyme",
  "settings": "protein: recombinant;recombinant; chain copies: 2;1;1;1;1;1",
  "data": [
    {"binder": "[-38/-12] upstream double-stranded probe (dsDNA) DNA 1: TATTTGACATCAGGAAAATTTTTTGGT DNA 2: ACCAAAAAATTTTCCTGATGTCAAATA", "values": [
      {"measurement": "binding signal", "value": "~3 fold higher affinity than without gpT5.026"}
    ]}
  ]
}
